In patent publication US20100210517A1 (RAPTOR PHARMACEUTICAL, published 2010):

What was measured:
LRP2 CR89 R1088D = target: T1, LRP2 CR89 R1088D (human, UniProt P98164 1022-1105); assay: solid-phase binding assay, CR protein coated on plate, anti-RAP detection
T1 construct: also called YVWD

LRP2 CR89 V1047D R1088D = target: T2, LRP2 CR89 V1047D R1088D (human, UniProt P98164 1022-1105); assay: solid-phase assay on coated CR protein, anti-RAP detection, A450
T2 construct: also called YDWD
T2 sequence: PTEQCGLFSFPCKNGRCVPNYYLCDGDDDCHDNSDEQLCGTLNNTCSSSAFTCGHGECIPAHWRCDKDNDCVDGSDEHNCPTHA
Procedure: (§1) Solid phase binding assays-Purified, refolded CR protein (1 μg) was bound to Nunc Maxisorp™ 96-well plates in TBS pH 8 supplemented with 5 mM CaCl₂ (TBSC) overnight at 4° C. Wells were washed with TBSC and then blocked with TBSC containing 2% bovine serum albumin (BSA). […] Control wells contained no added ligand. As an additional control, to determine whether the absence of calcium affected binding, 10 mM EGTA was included in the incubation medium for some samples. […] Excess primary antibody was removed and wells washed before incubation with the secondary antibody, HRP-conjugated goat anti rabbit IgG (Bio-Rad). After washing, TMB substrate solutions (Bio-Rad) were added to detect HRP. Color development was stopped with 1N HCl. Absorption at 450 nm was measured with a microplate spectrophotometer (Molecular Devices). Data were plotted and Kd values derived by non-linear regression with the assumption of single-site binding (GraphPad Prism).
(§2) To test this idea, mutant LRP2 CR89 were prepared in which the native, non-canonical residues at these positions were sequentially substituted with the non-native, canonical residues. As defined above, the A, C, A′, C′ string for LRP2 CR89 is YVWR. Mutants included LRP2 CR89 Y1042W (WVWR), LRP2 CR89 V1047D (YDWR), LRP2 CR89 R1088D (YVWD), LRP2 CR89 V1047D R1088D (YDWD), LRP2 CR89 Y1042W V1047D R1088D (WDWD), LRP2 CR89 Y1042W V1047D (WDWR), LRP2 CR89 Y1042W R1088D (WVWD).

LRP2 CR89 Y1042W V1047D = target: T3, LRP2 CR89 Y1042W V1047D (human, UniProt P98164 1022-1105); assay: as above
T3 construct: also called WDWR
T3 chain: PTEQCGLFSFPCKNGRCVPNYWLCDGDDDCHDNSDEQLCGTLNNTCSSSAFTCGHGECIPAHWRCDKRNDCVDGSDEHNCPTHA
Procedure: as §1, §2

LRP2 CR34-36 = target: T4, LRP2 CR34-36 (human, UniProt P98164 3841-3963); assay: solid-phase assay on coated CR protein, each ligand at 80 nM, blank-corrected absorbance
T4 construct: domain: CR34-36; not shown: N-terminal hexahistidine and S-peptide tags of pET30(+)a
T4 sequence (P98164 3841-3963): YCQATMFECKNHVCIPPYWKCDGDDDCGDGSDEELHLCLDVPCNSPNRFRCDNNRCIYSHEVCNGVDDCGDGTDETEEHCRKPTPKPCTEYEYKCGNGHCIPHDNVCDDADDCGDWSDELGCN
Procedure: (§3) Samples were tested twice, in duplicate, and values combined. Means and standard deviations were then calculated. Blank values obtained from wells incubated in the absence of ligand were used to correct absorbance data.
as §1

LRP2 CR3031 = target: T5, LRP2 CR3031 (human, UniProt P98164 3677-3755); assay: as above
T5 construct: domain: CR3031; Its cloning is not described in the methods; not shown: N-terminal hexahistidine and S-peptide tags of pET30(+)a
T5 sequence (P98164 3677-3755): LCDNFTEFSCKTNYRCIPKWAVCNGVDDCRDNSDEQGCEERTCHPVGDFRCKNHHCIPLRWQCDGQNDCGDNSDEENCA
Procedure: as §3, §1

LRP2 CR2728 = target: T6, LRP2 CR2728 (human, UniProt P98164 3552-3631); assay: as above
T6 construct: domain: CR2728; Its cloning is not described in the methods; not shown: N-terminal hexahistidine and S-peptide tags of pET30(+)a
T6 sequence (looked up): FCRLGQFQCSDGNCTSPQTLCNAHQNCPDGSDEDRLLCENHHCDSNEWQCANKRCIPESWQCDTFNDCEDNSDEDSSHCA
Procedure: as §3, §1

LRP2 CR3536 = target: T7, LRP2 CR3536 (human, UniProt P98164 3882-3963); assay: as above
T7 construct: domain: CR3536; not shown: N-terminal hexahistidine and S-peptide tags of pET30(+)a
T7 sequence (P98164 3882-3963): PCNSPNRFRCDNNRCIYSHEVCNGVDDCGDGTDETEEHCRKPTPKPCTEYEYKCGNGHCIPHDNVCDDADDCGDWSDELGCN
Procedure: as §3, §1

MAT CR12 = target: T8, MAT CR12 (human, UniProt Q9Y5Y6 452-524); assay: as above
T8 construct: also called ST14 CR12; matriptase CR12
T8 sequence: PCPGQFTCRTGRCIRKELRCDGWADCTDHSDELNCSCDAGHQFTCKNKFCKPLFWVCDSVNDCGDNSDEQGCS
Procedure: as §3, §1

B1: MegaRAP1 d3 (ligand)
chain: LDRLRRVSHQGYTTEAKFEEPRVIDLWDLAQSANLTDKELEAFREELKYFKAKIEAHNHYQKQLEIAHEELRHAESVGDGERVSRSREKHALLEGRTKELGYTVKKHLQDLSGRISRAR
notes: V175L lies outside the d3 construct; also called RAPv2A d3; RAP v2 d3; not shown: N-terminal hexahistidine and S-peptide tags of pET30(+)a
LRP2 CR89 R1088D
  fold loss of affinity relative to LRP2 CR89: ~2 fold
LRP2 CR89 V1047D R1088D
  binding result: no binding (tested: 100 nM)
LRP2 CR89 Y1042W V1047D
  binding result: no binding (tested: 100 nM)
LRP2 CR34-36
  binding result: no binding (tested: 80 nM)
LRP2 CR3031
  binding result: no binding (tested: 80 nM)
LRP2 CR2728
  binding result: no binding (tested: 80 nM)
LRP2 CR3536
  binding result: no binding (tested: 80 nM)
MAT CR12
  binding result: no binding (tested: 80 nM)
